# Measured values taken from patent US20220177594A1 (ZOETIS SERVICES, published 2022).
# Where a chain is given by its changes, count along the chain named.
# B1: Mu_09E09_VH (SEQ ID NO: 35)_Y57A (antibody, V domains shown)
# VH: DVKLVESGEGLVKPGGSLKLSCAASGFTFSSYAMSWVRQTPEKRLEWVAYISSGGDAIYYADTVKGRFTISRDNARNTLYLQMSSLKSEDTAMYYCTRDPITGTFAYWGQGTLVTVSA
# VL: DLQMTQTTSSLSASLGDRVTISCRASQDINNYLNWYQQKPDGTVKLLIYYTSTLHSGVPSRFSGSGSGTDYSLTISNLEQEDIATYFCQQGNTLPWTFGGGTKLEIKR
# B2: Mu_09E09_VL (SEQ ID NO: 37)_N92A (antibody, V domains shown)
# VH: B1 VH with A57Y
# VL: B1 VL with N92A
# B3: Mu_09E09_VH (SEQ ID NO: 35)_D99A (antibody, V domains shown)
# VH: B1 VH with A57Y, D99A
# VL: B1 VL
# B4: Mu_09E09_VH (SEQ ID NO: 35)_Y59A (antibody, V domains shown)
# VH: B1 VH with A57Y, Y59A
# VL: B1 VL
# B5: Mu_09E09_VH (SEQ ID NO: 35)_F105A (antibody, V domains shown)
# VH: B1 VH with A57Y, F105A
# VL: B1 VL
# B6: Mu_09E09_VH (SEQ ID NO: 35)_T102A (antibody, V domains shown)
# VH: B1 VH with A57Y, T102A
# VL: B1 VL
# B7: Mu_09E09_VH (SEQ ID NO: 35)_P100A (antibody, V domains shown)
# VH: B1 VH with A57Y, P100A
# VL: B1 VL
# B8: Mu_09E09_VL (SEQ ID NO: 37)_G91A (antibody, V domains shown)
# VH: B1 VH with A57Y
# VL: B1 VL with G91A
# B9: Mu_09E09_VL (SEQ ID NO: 37)_Q90A (antibody, V domains shown)
# VH: B1 VH with A57Y
# VL: B1 VL with Q90A
# B10: Mu_09E09_VL (SEQ ID NO: 37)_Y32A (antibody, V domains shown)
# VH: B1 VH with A57Y
# VL: B1 VL with Y32A
# B11: Mu_09E09_VL (SEQ ID NO: 37)_Y50A (antibody, V domains shown)
# VH: B1 VH with A57Y
# VL: B1 VL with Y50A
# B12: Mu_09E09_VH (SEQ ID NO: 35)_I101A (antibody, V domains shown)
# VH: B1 VH with A57Y, I101A
# VL: B1 VL
# B13: Mu_09E09_VL (SEQ ID NO: 37)_W96A (antibody, V domains shown)
# VH: B1 VH with A57Y
# VL: B1 VL with W96A
# B14: Mu_09E09_VL (SEQ ID NO: 37)_L94A (antibody, V domains shown)
# VH: B1 VH with A57Y
# VL: B1 VL with L94A
# B15: Mu_09E09_VL (SEQ ID NO: 37)_N34A (antibody, V domains shown)
# VH: B1 VH with A57Y
# VL: B1 VL with N34A
# Target: T1, ANTIBODY EXPRESSION CONTROL
# T1 construct: also called mouse anti-canine antibody (capture reagent of the expression control ELISA)
# Test: SPR Biacore, expression control
# Experimental: The affinity with which candidate mAbs bind canine, feline, and human (SEQ ID NO: 122; Human_OSMR) (R&D Systems, Minneapolis, Minn.) OSMR was determined using surface plasmon resonance (SPR) on a Biacore system (Biacore Life Sciences (GE Healthcare), Uppsala, Sweden). To avoid affinity differences associated with differential surface preparation that can occur when immobilizing antibodies to surfaces; OSMR from each species was directly conjugated to individual surfaces. Immobilization was obtained by amine coupling 5 μg/mL OSMR using N-hydroxysuccinimide (NHS)/1-Ethyl-3-(3-dimethylaminopropyl) carbodiimide (EDC) chemistry. Chips were quenched with ethanolamine and the affinity with which all candidate mAbs bound to the immobilized OSMR was evaluated. All curves were fit to a 1:1 model. […] Results for affinity measurements are described herein.
# Data from an ELISA represents an equilibrium state where the antibody is allowed to associate and dissociate over a one-hour period resulting in steady-state binding. Using Biacore, the target protein is immobilized to a surface and the antibody is passed over this surface in a mobile liquid phase. Protein-protein interaction is determined from changes in the surface resonance which allows for calculation of association (kₐ), disassociation (kd), and affinity constant (KD). While not wishing to be bound to one hypothesis we present data from ELISA and Biacore experiments, using the same preparation of antibody, that may result in agreement between the two methods with respect to binding but also may show contradictory results due to the nature of the binding kinetics and different assay dynamics. The data presented in Table A (in combination with experimental results from yeast display mutational analysis in Example 21) allow for the definition of a structure:function relationship to be defined between the anti-OSMR antibodies described here and their ability to bind and block IL-31 and OSM-mediated signaling through the OSMR receptor.
Binder,Kd [pM],koff [s⁻¹],kon [M⁻¹ s⁻¹]
B1,208,6.34e-05,305000
B2,257,7.59e-05,296000
B3,219,6.88e-05,314000
B4,147,4.52e-05,307000
B5,138,4.66e-05,338000
B6,172,5.33e-05,311000
B7,78.6,2.35e-05,300000
B8,306,8.96e-05,292000
B9,249,7.12e-05,286000
B10,294,8.76e-05,298000
B11,257,7.96e-05,310000
B12,172,5.4e-05,314000
B13,345,9.76e-05,283000
B14,250,7.63e-05,305000
B15,317,8.91e-05,281000
